Measured values from patent US20050282743A1, “Molecular interactions in cells” (Arbor Vita Corporation, priority 2001, published 2005).
Where two headings read alike, the source gives them in different places.

Experiments:
Experiment in all cases: G' assay
[1] = biological target: T1, GST-PTPL1 PDZ domain 4 (Homo sapiens (Human)), Q12923
T1 chain: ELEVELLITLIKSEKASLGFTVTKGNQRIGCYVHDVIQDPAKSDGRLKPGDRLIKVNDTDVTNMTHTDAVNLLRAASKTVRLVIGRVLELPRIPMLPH

[2] = biological target: T2, GST-Connector Enhancer PDZ domain 1 (Homo sapiens (Human)), Q969H4
T2 chain: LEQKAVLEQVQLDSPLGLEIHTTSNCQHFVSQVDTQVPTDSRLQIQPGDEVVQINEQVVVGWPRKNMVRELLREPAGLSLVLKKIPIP

[3] = biological target: GST-Atrophin-1 Interacting Protein PDZ domain 1 (Rattus norvegicus (Rat)), O88382
Sequence of GST-Atrophin-1 Interacting Protein PDZ domain 1 (Rattus norvegicus (Rat)), O88382 (O88382 408-511): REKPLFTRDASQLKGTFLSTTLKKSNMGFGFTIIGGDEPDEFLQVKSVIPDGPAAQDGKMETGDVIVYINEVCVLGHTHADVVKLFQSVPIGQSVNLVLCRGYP

[4] = biological target: T3, GST-NeDLG PDZ domain 1 (Mus musculus (Mouse)), P70175
T3 chain: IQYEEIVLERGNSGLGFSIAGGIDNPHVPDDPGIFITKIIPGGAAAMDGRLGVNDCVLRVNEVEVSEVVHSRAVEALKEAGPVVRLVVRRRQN

[5] = biological target: T4, GST-MUPP1 PDZ domain 10 (Homo sapiens (Human)), O75970
T4 chain: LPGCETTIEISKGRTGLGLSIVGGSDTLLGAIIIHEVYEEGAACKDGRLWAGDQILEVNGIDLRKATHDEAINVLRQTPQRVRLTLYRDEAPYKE

[6] = biological target: T5, GST-EZRIN Binding Protein 50 PDZ domain 2 (Homo sapiens (Human)), O14745
T5 chain: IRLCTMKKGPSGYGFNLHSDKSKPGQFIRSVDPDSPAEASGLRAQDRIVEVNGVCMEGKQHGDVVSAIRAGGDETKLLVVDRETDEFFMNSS

[7] = biological target: T6, GST-Shank 3 PDZ domain 1 (human (hypothetical, computer cloned)), Q9BYB0
T6 chain: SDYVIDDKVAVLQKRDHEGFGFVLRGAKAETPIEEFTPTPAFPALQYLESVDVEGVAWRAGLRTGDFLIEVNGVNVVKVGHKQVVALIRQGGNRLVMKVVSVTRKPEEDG

[8] = biological target: T7, GST-PDZK1 PDZ domains 2, 3, 4, Q5T2W1
T7 chain: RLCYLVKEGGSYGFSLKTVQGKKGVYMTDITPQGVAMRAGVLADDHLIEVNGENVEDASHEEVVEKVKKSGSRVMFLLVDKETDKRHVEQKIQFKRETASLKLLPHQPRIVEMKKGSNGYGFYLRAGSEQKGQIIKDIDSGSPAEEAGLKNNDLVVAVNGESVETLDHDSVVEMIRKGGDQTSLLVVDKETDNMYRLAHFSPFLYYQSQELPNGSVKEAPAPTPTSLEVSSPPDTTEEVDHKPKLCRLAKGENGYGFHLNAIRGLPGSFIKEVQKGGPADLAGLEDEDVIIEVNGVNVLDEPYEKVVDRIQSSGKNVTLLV

[9] = biological target: T8, GST-INADL PDZ domain 5 (Homo sapiens (Human)), Q8NI35
T8 chain: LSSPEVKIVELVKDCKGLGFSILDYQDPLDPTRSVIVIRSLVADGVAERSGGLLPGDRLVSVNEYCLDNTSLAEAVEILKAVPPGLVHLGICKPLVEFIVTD

[10] = biological target: T9, GST-LIMK1 PDZ domain 1 (Homo sapiens (Human)), P53667
T9 chain: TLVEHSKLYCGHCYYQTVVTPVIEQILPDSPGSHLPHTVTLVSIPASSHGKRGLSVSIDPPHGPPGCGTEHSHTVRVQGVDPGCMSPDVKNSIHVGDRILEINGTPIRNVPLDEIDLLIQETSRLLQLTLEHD

[11] = biological target: T10, GST-Syntrophin 1 alpha PDZ domain 1 (Homo sapiens (Human)), Q13424
T10 chain: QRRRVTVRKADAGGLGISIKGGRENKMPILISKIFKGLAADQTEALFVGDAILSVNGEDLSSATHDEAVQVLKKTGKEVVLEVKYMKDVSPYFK

[12] = biological target: T11, GST-MUPP1 PDZ domain 1 (Homo sapiens (Human)), O75970
T11 chain: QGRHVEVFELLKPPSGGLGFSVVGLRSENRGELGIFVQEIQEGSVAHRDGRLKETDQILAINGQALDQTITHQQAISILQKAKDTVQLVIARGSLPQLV

[13] = biological target: T12, GST-ZO-3 PDZ domain 3 (Homo sapiens (Human)), O95049
T12 chain: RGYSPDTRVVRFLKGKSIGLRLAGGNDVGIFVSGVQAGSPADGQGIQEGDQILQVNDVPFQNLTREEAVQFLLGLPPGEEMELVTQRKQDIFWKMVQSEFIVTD

[14] = biological target: T13, GST-ZO-3 PDZ domain 2 (Homo sapiens (Human)), O95049
T13 chain: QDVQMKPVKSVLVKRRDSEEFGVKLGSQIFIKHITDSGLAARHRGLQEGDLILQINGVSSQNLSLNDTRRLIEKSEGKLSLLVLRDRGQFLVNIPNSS

[15] = biological target: T14, GST-MUPP1 PDZ domain 8 (Homo sapiens (Human)), O75970
T14 chain: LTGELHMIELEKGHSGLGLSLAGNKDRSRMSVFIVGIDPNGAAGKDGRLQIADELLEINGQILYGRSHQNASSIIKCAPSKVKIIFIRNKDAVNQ

[16] = biological target: T15, GST-KIAA1284 PDZ domain 1 (Homo sapiens (Human)), Q9ULD6
T15 chain: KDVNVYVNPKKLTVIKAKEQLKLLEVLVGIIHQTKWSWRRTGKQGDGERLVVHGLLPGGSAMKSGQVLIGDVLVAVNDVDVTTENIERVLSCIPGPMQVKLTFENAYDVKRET

[17] = biological target: T16, GST-X-11 beta PDZ domain 1 (Rattus norvegicus (Rat)), O35431
T16 chain: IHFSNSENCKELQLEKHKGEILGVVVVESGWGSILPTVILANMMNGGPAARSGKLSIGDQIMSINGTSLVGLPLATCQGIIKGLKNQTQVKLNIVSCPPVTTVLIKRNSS
Note: key of the grades not given here.

With VGTLLLERVIFPSVKIATLV (modifications not checked) [AdenoE4 typ9] the Classification [1] was 4 A450 class, the Classification [2] was 3 A450 class and the Classification [3] was 5 A450 class. It also gave a Classification [4] of 1 A450 class and a Classification [5] of 1 A450 class.

With AWDDSARAAGGQGLHVTAL (modifications not checked) [LPAP] the Classification [6] was 4 A450 class, the Classification [7] was 3 A450 class and the Classification [8] was 3 A450 class.

For TQGFPGPATWRRISSLESEV (modifications not checked) [NMDA Glutamate Receptor 2C (cysteine-free)], the Classification [9] was 1 A450 class, the Classification [10] was 1 A450 class and the Classification [3] was 5 A450 class. It also gave a Classification [4] of 2 A450 class, a Classification [5] of 1 A450 class and a Classification [11] of 4 A450 class.

KTMPAAMYRLLTAQEQPVYI (modifications not checked) [MINT-1] was tested, and the Classification [1] was 5 A450 class, the Classification [12] was 1 A450 class and the Classification [5] was 1 A450 class. The Classification [13] was 1 A450 class.

For HDFRRAFKKILARGDRKRIV (modifications not checked) [alpha-2A Adrenergic receptor], the Classification [14] was 3 A450 class, the Classification [15] was 1 A450 class and the Classification [16] was 1 A450 class. The Classification [17] was 2 A450 class.

ELLQFCRTPNPALKNGQYWV (modifications not checked) [CSPG4 (chondroitin sulfae proteoglycan 4, melanoma-associated)] showed a Classification [1] of 5 A450 class, a Classification [15] of 2 A450 class and a Classification [9] of 5 A450 class. For the same binder, the Classification [12] was 2 A450 class, the Classification [3] was 1 A450 class and the Classification [5] was 4 A450 class. For the same binder, the Classification [13] was 5 A450 class.

In the case of ILNSIQVMRAQMNQIQSVEV (modifications not checked) [ephrin B2], the Classification [14] is reported as 2 A450 class, the Classification [1] is reported as 2 A450 class and the Classification [16] is reported as 1 A450 class. It also gave a Classification [17] of 2 A450 class and a Classification [13] of 1 A450 class.

For PYSELNYETSHYPASPDSWV (modifications not checked) [catenin - delta 2], the Classification [1] was 1 A450 class, the Classification [9] was 1 A450 class and the Classification [13] was 3 A450 class.

QISPGGLEPPSEKHFRETEV (modifications not checked) [TAX] showed a Classification [10] of 1 A450 class, a Classification ([2]; remark: other sources report otherwise) of 1 A450 class and a Classification [3] of 5 A450 class.

For VPGALDYAAFSSALYGESDL (modifications not checked) [a-actinin 2], the Classification [11] was 3 A450 class.

Binder PIPAGGCTFSGIFPTLTSPL (modifications not checked) [KIA 1481] has a Classification [9] of 1 A450 class, a Classification [6] of 2 A450 class and a Classification [7] of 3 A450 class. For the same binder, the Classification [8] was 2 A450 class.
